# In US20190142860A1, “NUCLEIC ACID BASED TIA-1 INHIBITORS” (Aquinnah Pharmaceuticals, Inc., priority 2015, published 2019):
# Key:
# [1] = biological target: Nucleolysin TIA-1 (endogenous mouse TIA1) (mouse) (UniProt P52912); assay: TIA1 IP-MS, tau KO 2 cortex
# [2] = biological target: Nucleolysin TIA-1 (endogenous mouse TIA1) (mouse) (UniProt P52912); assay: TIA1 IP-MS, WT3 cortex
# [3] = biological target: Nucleolysin TIA-1 (endogenous mouse TIA1) (mouse) (UniProt P52912); assay: TIA1 IP-MS, tau KO 3 cortex
# [4] = biological target: Nucleolysin TIA-1 (endogenous mouse TIA1) (mouse) (UniProt P52912); assay: TIA1 IP-MS, tau KO 1 cortex
# [5] = biological target: Nucleolysin TIA-1 (endogenous mouse TIA1) (mouse) (UniProt P52912); assay: TIA1 IP-MS, WT2 cortex
# [6] = biological target: Nucleolysin TIA-1 (endogenous mouse TIA1) (mouse) (UniProt P52912); assay: TIA1 IP-MS, WT1 cortex
# Sequence of UniProt P52912 (P52912 whole entry): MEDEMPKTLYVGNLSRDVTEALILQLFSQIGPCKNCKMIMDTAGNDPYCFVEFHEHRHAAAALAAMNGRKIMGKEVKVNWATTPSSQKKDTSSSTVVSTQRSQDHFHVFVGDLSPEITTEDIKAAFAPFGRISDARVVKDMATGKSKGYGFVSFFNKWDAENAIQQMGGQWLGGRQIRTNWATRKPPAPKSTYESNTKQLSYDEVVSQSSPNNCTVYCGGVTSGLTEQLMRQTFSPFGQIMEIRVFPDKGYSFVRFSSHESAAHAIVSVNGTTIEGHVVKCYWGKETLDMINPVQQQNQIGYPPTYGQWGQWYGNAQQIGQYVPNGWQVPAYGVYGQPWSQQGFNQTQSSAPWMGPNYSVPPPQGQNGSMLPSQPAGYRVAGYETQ
Substance,total ion current (normalized to TIA1 = 1000) [1],total ion current (normalized to TIA1 = 1000) [2],total ion current (normalized to TIA1 = 1000) [3],total ion current (normalized to TIA1 = 1000) [4],total ion current (normalized to TIA1 = 1000) [5],total ion current (normalized to TIA1 = 1000) [6]
Band 4.1-like protein 2 (from UniProt O70318 2-988),0,0,0,25.8,0,16.7
"NADH dehydrogenase [ubiquinone] iron-sulfur protein 2, mitochondrial (from UniProt Q91WD5 34-463)",27,0,0,0,137,0
V-type proton ATPase subunit H (from UniProt Q8BVE3 1-483),30.3,57.6,0,0,101,0
Prohibitin (from UniProt P67778 2-272),137,37.7,0,0,172,0
RNA-binding protein EWS (from UniProt Q61545 1-655),0,0,0,0,32.5,6.73
Isoform 2 of MICOS complex subunit Mic60 (from UniProt Q8CAQ8 34-746),59,37.6,0,0,64.7,0
V-type proton ATPase catalytic subunit A (from UniProt P50516 1-617),214,71.9,0,0,319,0
Isoform 2 of Clathrin light chain B (from UniProt Q6IRU5 1-211),0,0,0,0,0,3.53

# Results, then the substance that gave them:
total ion current (normalized to TIA1 = 1000) [1],total ion current (normalized to TIA1 = 1000) [2],total ion current (normalized to TIA1 = 1000) [3],total ion current (normalized to TIA1 = 1000) [4],total ion current (normalized to TIA1 = 1000) [5],total ion current (normalized to TIA1 = 1000) [6],Substance
26.9,0,0,0,99.7,0,Syntaxin-1B (from UniProt P61264 1-288)
86.4,0,0,0,50.7,0,Polyadenylate-binding protein 1 (from UniProt P29341 1-636)
36.9,60.8,0,0,366,0,"NADH dehydrogenase [ubiquinone] iron-sulfur protein 3, mitochondrial (from UniProt Q9DCT2 36-263)"
26.6,49.3,0,0,65.7,0,Isoform 2 of C-terminal-binding protein 1 (from UniProt O88712 1-430)
0,0,0,5.22,0,7.28,"Isovaleryl-CoA dehydrogenase, mitochondrial (from UniProt Q9JHI5 31-424)"
12.2,85,0,0,136,0,Mitochondrial glutamate carrier 1 (from UniProt Q9D6M3 1-323)
76,607,0,0,133,0,Myelin-oligodendrocyte glycoprotein (from UniProt Q61885 29-246)
54.1,0,0,0,21,0,Hypoxanthine-guanine phosphoribosyltransferase (from UniProt P00493 1-218)
104,0,0,0,80.3,0,Pyridoxal kinase (from UniProt Q8K183 1-312)
0,57.7,0,0,75.2,0,Thy-1 membrane glycoprotein (from UniProt P01831 20-131)
0,0,0,0,59.4,0,Guanine nucleotide-binding protein G(z) subunit alpha (from UniProt O70443 2-355)
29,145,0,0,90.8,0,Clathrin light chain A (from UniProt O08585 1-235)
190,515,0,0,372,0,Isoform A of Cytosolic acyl coenzyme A thioester hydrolase (from UniProt Q91V12 1-338)
